This is an account of results in patent US20070280945A1 (Regeneron, published 2007).

The target of assay [1] is T1, hIL-6R-hFc (human, UniProt P08887 20-358).
T1 construct: also called dimeric hIL-6R; Dimer; not shown: human Fc (hFc)
T1 sequence: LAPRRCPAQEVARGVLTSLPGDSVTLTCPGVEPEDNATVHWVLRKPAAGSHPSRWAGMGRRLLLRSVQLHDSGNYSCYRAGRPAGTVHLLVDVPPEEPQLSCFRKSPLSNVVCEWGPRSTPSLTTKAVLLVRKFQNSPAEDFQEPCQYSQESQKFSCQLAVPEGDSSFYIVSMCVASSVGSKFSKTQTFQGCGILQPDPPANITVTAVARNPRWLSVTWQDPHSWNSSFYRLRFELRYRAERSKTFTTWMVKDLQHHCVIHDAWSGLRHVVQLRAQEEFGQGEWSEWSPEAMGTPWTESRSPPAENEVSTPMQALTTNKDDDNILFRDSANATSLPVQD
Nature of the assay: competition ELISA: antibody premixed with serial dilutions of hIL-6R-hFc, free antibody detected on hIL-6R-hFc-coated plate. (In an ELISA, binding on a coated surface is turned into a signal by an enzyme label.)

For assay [2], the target named is T2, hIL-6R recombinant protein (plate-coated, Example 5) (human, UniProt P08887 20-358, limits assumed).
T2 construct: also called antigen
T2 sequence: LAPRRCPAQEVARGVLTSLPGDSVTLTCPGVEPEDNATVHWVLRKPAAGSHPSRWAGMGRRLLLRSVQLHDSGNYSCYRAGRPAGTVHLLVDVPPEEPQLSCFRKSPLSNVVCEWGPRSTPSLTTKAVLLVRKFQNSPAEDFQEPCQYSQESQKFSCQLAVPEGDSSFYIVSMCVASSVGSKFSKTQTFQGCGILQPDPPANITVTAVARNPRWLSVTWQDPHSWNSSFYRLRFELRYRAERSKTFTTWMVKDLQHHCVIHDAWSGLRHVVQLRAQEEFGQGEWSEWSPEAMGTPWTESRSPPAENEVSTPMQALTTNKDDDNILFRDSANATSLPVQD
Nature of the assay: competition ELISA on hIL-6R-coated plate presaturated with competitor control antibody; test antibody 50 ng/ml.
Method: An antibody binding competition immunoassay was performed using as a control humanized antibody to human IL-6R. Briefly, a 96-well immunosorbent plate was coated with 20 ng per well hIL-6R recombinant protein overnight at 4° C. […] After one hour of additional binding, the free antibody was washed away and the plate-bound antibody was detected with HRP-conjugated goat anti-mouse IgG or IgA, polyclonal antibody and the plate was developed using chromatic HRP substrates and absorbance at 450 nm was recorded.

In assay [3] the target is T1, hIL-6R-hFc. Kind of assay: blocking ELISA: 100 pM hIL-6R-hFc premixed with varied antibody, free hIL-6R-hFc captured on hIL-6-coated plate.
Method: This plate was used to capture free hIL-6R-hFc from antibody sample solutions, and the amount of captured hIL-6R-hFc was quantified according to the standard curve. The sample solutions were composed of a constant amount of hIL-6R-hFc recombinant protein (100 pM) and varying amounts of antibody, either in crude hybridoma condition medium or as purified antibody protein, ranging from 0 to about 50 nM in serial dilutions. The antibody-antigen mixtures were incubated at room temperature for ˜2 hours to allow antibody-antigen binding to reach equilibrium. […] After 1 hour binding, the plate was washed and bound hIL-6R-hFc was detected using HRP-conjugated goat anti-hFc polyclonal antibodies (Jackson Immuno Research), and developed using TMB substrate (BD Pharmigen).
Assay [4] deals with T3, recombinant hIL-6R protein, monomeric form (human, UniProt P08887 20-358).
T3 construct: also called monomeric hIL-6R; Human IL6R
T3 sequence: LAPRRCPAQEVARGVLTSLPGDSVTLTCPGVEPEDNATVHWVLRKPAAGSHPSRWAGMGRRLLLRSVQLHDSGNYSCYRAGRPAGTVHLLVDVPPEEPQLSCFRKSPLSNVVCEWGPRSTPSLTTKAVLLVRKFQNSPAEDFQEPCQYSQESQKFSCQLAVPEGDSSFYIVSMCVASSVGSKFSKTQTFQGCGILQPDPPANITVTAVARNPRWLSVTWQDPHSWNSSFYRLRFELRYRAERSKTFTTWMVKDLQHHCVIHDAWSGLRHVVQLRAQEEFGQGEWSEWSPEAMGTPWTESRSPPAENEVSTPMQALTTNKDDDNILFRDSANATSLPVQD
Nature of the assay: SPR (BIAcore), antibody captured on goat anti-human Fc, monomeric hIL-6R 1.56-12.5 nM.
Method: The binding affinity to monomeric hIL-6R of four antibodies having mouse IgG, human IgG1 or human IgG4 (wild-type and modified) were determined using BIAcore™ as described above except a goat anti-human Fc polyclonal antibody surface was used to capture hIgG antibodies.

Assay [5] concerns the target T4, hIL-6R on hIL-6-responsive human cells (XG-1 myeloma line, HepG2 hepatoma line) (human, UniProt P08887 20-468).
T4 sequence (looked up): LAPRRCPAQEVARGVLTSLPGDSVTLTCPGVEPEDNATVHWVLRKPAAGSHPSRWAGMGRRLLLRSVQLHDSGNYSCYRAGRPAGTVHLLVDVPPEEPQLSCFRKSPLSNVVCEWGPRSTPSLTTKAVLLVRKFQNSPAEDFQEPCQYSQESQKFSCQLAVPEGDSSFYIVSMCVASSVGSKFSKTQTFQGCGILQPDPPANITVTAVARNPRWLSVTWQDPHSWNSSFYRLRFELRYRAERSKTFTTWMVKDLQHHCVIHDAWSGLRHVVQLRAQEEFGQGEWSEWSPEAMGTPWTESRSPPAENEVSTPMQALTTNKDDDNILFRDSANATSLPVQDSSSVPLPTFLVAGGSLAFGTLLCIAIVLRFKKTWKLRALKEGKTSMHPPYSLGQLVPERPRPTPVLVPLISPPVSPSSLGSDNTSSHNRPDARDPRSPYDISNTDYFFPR
Kind of assay: cell-based or functional assay.

B1: VV7G4-10 (antibody, V domains shown)
VH: QVQLVQSGAEVKKPGASVKVSCKASGYTFTSYGISWVRQAPGQGLEWMGWISAYNDDTNYAQKFQGRVTMTTDTSTSTAYMELRSLRSDDTAVYYCAREAQLVLYYYYGMDVWGQGTTVTVSS
VL: EIVLTQSPATLSLSPGERATLSCRASQSVSSFLAWNQQKPGQAPRLLIYDASNRATGIPARFSGSGSGTDFTLTISSLEPEDFAVYYCQQRSNWPYIFGQGTKLEIK
notes: Human variable regions with mouse constant region
The IC50 is the concentration that gives 50% inhibition. A lower IC50 goes with greater potency in that assay. As for B1, the 50% inhibitory concentration (IC50) in assay [1] turned out to be 1.98 nM; in assay [3], 13 nM. Besides, in assay [2], the “% reduction of binding by control antibody” value (“% reduction of binding” below) came to 26%.

B2: VV9A6-11 (antibody, V domains shown)
VH: QVQLVQSGAEVKKPGASVKVSCKASGYTFTSYGISWVRQAPGQGLEWMGWISAYNDDTNYAQKFQGRVTMTTDTSTSTAYMELRSLRSDDTAVYYCAREAQLVLYYYYGMDVWGQGTTVTVSS
VL: EIVLTQSPATLSLSPGERATLSCRASQSVSSFLAWNQQKPGQAPRLLIYDASNRATGIPARFSGSGSGTDFTLTISSLEPEDFAVYYCQQRSNWPYIFGQGTKLEIK
notes: as for B1
As for B2, the values for the concentration for half-maximal inhibition (IC50) in assay [1] and in assay [3] were 0.347 nM and 0.5 nM, respectively. The “% reduction of binding” value in assay [2] turned out to be 18%.

B3: VV6F12-11 (antibody, V domains shown)
VH: QVQLVQSGAEVKEPGASVKISCKASGYTFTSYDIIWVRQATGQGLEWMGWMNPNSGDRGYTQNLQGRVTLTRDTSISTVYMELSSLRSEDTAVYYCARDYSNHYYGLDVWGQGTTVTVSS
VL: DIQLTQSPSFLSASVGDRVTITCWASQDISNYLAWYQQKPGKAPKLLIFVASTLQSGVPSRFSGSGSGTEFTLTISSLQPEDFATYYCQQFNSYPLTFGGGTKVEIR
notes: as for B1
Regarding B3, the concentration for half-maximal inhibition (IC50) in assay [1] was determined as 0.033 nM; in assay [3] it was 2.2 nM. The “% reduction of binding” value in assay [2] worked out at 3%.

B4: VQ1G4-21 hIgG1 (antibody, V domains shown)
VH: QVQLVQSGAEVKEPGASVKVSCKASGYTFTSYDIIWVRQATGQGLEWMGWMNPNSGNTGYTQNLQGRVTLTRNTSITTVYMELSSLSSEDTAVYYCARDYSSHYYGLDVWGQGTTVTVSS
VL: DIQLTQSPSFLSTSIGDRVTITCWASQDISNYLAWYQQKPGKAPKLLIFVASTLQSGVPSRFSGSGSGTEFTLTISSLQPEDFATYYCQQFNSYPLTFGGGTKVEIK
notes: Human IgG1 constant region
The Kd is the free concentration of one partner at which half of the binding sites on the other are occupied at equilibrium, for simple one-to-one binding. Usually koff stands for a measure of how fast the partners let go of each other. Broadly, the kon is the rate constant with which the complex forms. As to B4, in assay [4], the equilibrium dissociation constant (Kd) is 0.237 nM, the dissociation rate constant (koff) is 7.92e-05 s⁻¹ and the kon worked out at 334000 M⁻¹ s⁻¹. Besides, the “HepG2/STAT3 luciferase assay IC50” value in assay [5] was 0.767 nM.

B5: VQ1G4-21 hIgG4 (antibody, V domains shown)
VH: QVQLVQSGAEVKEPGASVKVSCKASGYTFTSYDIIWVRQATGQGLEWMGWMNPNSGNTGYTQNLQGRVTLTRNTSITTVYMELSSLSSEDTAVYYCARDYSSHYYGLDVWGQGTTVTVSS
VL: DIQLTQSPSFLSTSIGDRVTITCWASQDISNYLAWYQQKPGKAPKLLIFVASTLQSGVPSRFSGSGSGTEFTLTISSLQPEDFATYYCQQFNSYPLTFGGGTKVEIK
notes: Human IgG4 constant region
B5: in assay [4], the dissociation constant Kd amounted to 0.336 nM, the off-rate (koff) was determined as 9.18e-05 s⁻¹ and the on-rate constant (kon) stood at 273000 M⁻¹ s⁻¹. Further, the “HepG2/STAT3 luciferase assay IC50” value in assay [5] came out at 0.528 nM.

B6: VV6C10-3 (antibody, V domains shown)
VH: QVQLVQSGAEVKKPGASVKVSCKASGFNFFHYGITWVRQAPGQGLEWMGWISTYNGDTIYAQKVQGRVTMTTDTATSTAYMELRSLRSDDTAVYYCARSEQQVDYYFYGMDVWGQGTTVTVSS
VL: EIVLTQSPATLSLSPGERATLSCRASQSVSSYLAWYQQKPGQAPRLLIYDASNRATGIPARFSGSGSGTDFTLTISSLEPEDFAFYYCQQRNNRPPFTFGPGTKVDVR
notes: as for B1
Regarding B6, the 50% inhibitory concentration (IC50) in assay [1] was 0.009 nM; in assay [3], 0.06 nM. The “% reduction of binding” value in assay [2] worked out at 1%.

B7: VQ8A9-6 hIgG1 (antibody, V domains shown)
VH: EVQLVESGGNLVQPGRSLRLSCAASGFIFDDYAMHWVRQAPGKGLEWVSGISWNSGSIGYADSVKGRFTISRDNAKNSLYLQMNSLRAEDTALYYCAKDGGSSWLPFVYYYGMDVWGQGTTVTVSS
VL: EIVMTQSPATLSVSPGERATLSCRASQSISSNFAWYQQKPGQAPRLLIYGASTRATGIPARFSGSGSGTDFTLTISSLQSEDFAVYYCQQYSSWPPYTFGQGTKLEIK
notes: Human IgG1 constant region
Regarding B7, in assay [4], the dissociation constant (Kd) stood at 0.238 nM, the koff worked out at 0.00026 s⁻¹ and the kon was 1.09e+06 M⁻¹ s⁻¹. Also, the “HepG2/STAT3 luciferase assay IC50” value in assay [5] is 0.13 nM.

B8: VQ8A9-6 hIgG4 (antibody, V domains shown)
VH: EVQLVESGGNLVQPGRSLRLSCAASGFIFDDYAMHWVRQAPGKGLEWVSGISWNSGSIGYADSVKGRFTISRDNAKNSLYLQMNSLRAEDTALYYCAKDGGSSWLPFVYYYGMDVWGQGTTVTVSS
VL: EIVMTQSPATLSVSPGERATLSCRASQSISSNFAWYQQKPGQAPRLLIYGASTRATGIPARFSGSGSGTDFTLTISSLQSEDFAVYYCQQYSSWPPYTFGQGTKLEIK
notes: Human IgG4 constant region
For B8, in assay [4], the Kd turned out to be 0.201 nM, the dissociation rate constant (koff) stood at 0.000235 s⁻¹ and the kon amounted to 1.17e+06 M⁻¹ s⁻¹. In assay [5], the “HepG2/STAT3 luciferase assay IC50” value is 0.185 nM.

B9: VQ8F11-21 hIgG1 (antibody, V domains shown)
VH: EVQLVESGGGLVQPGRSLRLSCAASRFTFDDYAMHWVRQAPGKGLEWVSGISWNSGRIGYADSVKGRFTISRDNAENSLFLQMNGLRAEDTALYYCAKGRDSFDIWGQGTMVTVSS
VL: DIQMTQSPSSVSASVGDRVTITCRASQGISSWLAWYQQKPGKAPKLLIYGASSLESGVPSRFSGSGSGTDFTLTISSLQPEDFASYYCQQANSFPYTFGQGTKLEIK
On to B9, for which, in assay [4], the Kd is 0.073 nM, the koff was 4.54e-05 s⁻¹ and the kon is 622000 M⁻¹ s⁻¹. In addition, in assay [5], the “HepG2/STAT3 luciferase assay IC50” value is 0.15 nM.

B10: VV6A9-5 hIgG4 (antibody, V domains shown)
VH: EVQLVESGGGLVQPGRSLRLSCAASGFTFDDYALHWVRQAPGKGLEWVSGVSWNGGRIGYADSVKGRFTISRDNAKNSLFLQMNSLRVEDTALYYCAKGRDAFDIWGQGTLVTVSS
VL: DIQMTQSPSSVSASVGDRVTITCRASQGISSWLAWYQQKPGKAPKLLIYAASSLQSGVPSRFSGSGSGTDFTLTISSLQPEDFATYYCQHAYSFPYTFGQGTKLEIK
notes: Human IgG4 constant region
For B10, in assay [4], the Kd is 0.135 nM, the off-rate (koff) was 7.64e-05 s⁻¹ and the kon amounted to 567000 M⁻¹ s⁻¹. The “HepG2/STAT3 luciferase assay IC50” value in assay [5] was determined as 0.343 nM.

B11: VV6A9-5 hIgG1 (antibody, V domains shown)
VH: EVQLVESGGGLVQPGRSLRLSCAASGFTFDDYALHWVRQAPGKGLEWVSGVSWNGGRIGYADSVKGRFTISRDNAKNSLFLQMNSLRVEDTALYYCAKGRDAFDIWGQGTLVTVSS
VL: DIQMTQSPSSVSASVGDRVTITCRASQGISSWLAWYQQKPGKAPKLLIYAASSLQSGVPSRFSGSGSGTDFTLTISSLQPEDFATYYCQHAYSFPYTFGQGTKLEIK
notes: Human IgG1 constant region
On to B11, for which, in assay [4], the Kd is 0.125 nM, the koff worked out at 8.87e-05 s⁻¹ and the association rate constant (kon) is 712000 M⁻¹ s⁻¹. Besides, in assay [5], the “HepG2/STAT3 luciferase assay IC50” value amounted to 0.204 nM.

B12: VQ8F11-21 hIgG4 (antibody, V domains shown)
VH: EVQLVESGGGLVQPGRSLRLSCAASRFTFDDYAMHWVRQAPGKGLEWVSGISWNSGRIGYADSVKGRFTISRDNAENSLFLQMNGLRAEDTALYYCAKGRDSFDIWGQGTMVTVSS
VL: DIQMTQSPSSVSASVGDRVTITCRASQGISSWLAWYQQKPGKAPKLLIYGASSLESGVPSRFSGSGSGTDFTLTISSLQPEDFASYYCQQANSFPYTFGQGTKLEIK
notes: Human IgG4 (wild-type) constant region
Take B12: in assay [4], the equilibrium dissociation constant (Kd) came out at 0.073 nM, the koff amounted to 5.22e-05 s⁻¹ and the kon was found to be 717000 M⁻¹ s⁻¹. The “HepG2/STAT3 luciferase assay IC50” value in assay [5] is 0.228 nM.
